In the supplement of paper PMC9170038:

System: MS2 coat protein
Assay: apparent KD of MS2 coat protein; designed switch direction (-1 OFF switch, 1 ON switch): -1; higher = weaker reporter binding
Procedure, shortened: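 RNA switches sharing common flanks were transcribed by stalled E. coli RNA polymerase on Illumina chips. A doubling series of SNAP-549-labelled MS2 coat protein, from 0.7 or 1.5 nM to 3 µM, was applied in Tris-HCl pH 7.5 buffer with KCl, MgCl2, BSA, DTT, tRNA and Tween-20. Each step lasted 0.8–1.5 h at the bottom of the series and 10–20 min at the top. Normalised cluster fluorescence was curve-fitted, giving apparent KD as the per-design median over clusters.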

[1] = input ligand: microRNA oligo, concentration not stated
[2] = Eterna round: R95, input ligand: FMN 200 uM
[3] = Eterna round: R95, input ligand: microRNA oligo, concentration not stated
[4] = Eterna round: R95, input ligand: none

Sequence | apparent KD of MS2 coat protein (input ligand: FMN 200 uM) [nM] | apparent KD of MS2 coat protein [1] [nM] | apparent KD of MS2 coat protein (input ligand: none) [nM] | apparent KD of MS2 coat protein [2] [nM] | apparent KD of MS2 coat protein [3] [nM] | apparent KD of MS2 coat protein [4] [nM]
ACUGUUUGAUACCUCUAAUACAUGAGGAUCACCCAUGUUAUCGAGGAUAUGCAUUAGAGUGGUUAGCAGAAGGCGAAGUAAUUG [JR_ExcNG3_Sub031] (Eterna round: R96, puzzle: Exclusion NG 3) | 17 | 14.2 | 21.6 |  |  | 
AAGAUGUGAGGAUAUCACGAGAGCGUCACACGGACGCCCUCUGAGAAGGCACAUGAGGAUCACCCAUGUCCAAA [EX4 A.22] (Eterna round: R97, puzzle: Exclusion 4) | 387 |  | 65 |  |  | 
GAAAAGGUAGGAUAUACGAAAAAAAAGGGUAGAAAAAAAACACAUGAGGAUCACCCAUGUAGAAGGACCAUAAG [salish99_ex2_r3_091] (puzzle: Exclusion 2) |  |  |  | 63.3 | 29.9 | 29.2
CCUAGUGUCGGAGGAUAUCCUACACAAACCUUAGGAGAAGGCCGACAUGAGGAUCACCCAUGUAAAACCUAAACCUAAAAUCAA [Raesusbi] (Eterna round: R96, puzzle: Exclusion NG 1) | 48.9 | 12.8 | 15.2 |  |  | 
AAGAAGACAGGAUAUACAUGAAAGAAAGAAAAGAAAAGAAAACAUGAGGAUCACCCAUGUAGAAGGGUCAAGAA [EteRNA is fun!] (Eterna round: R96, puzzle: Exclusion 2) |  | 35.8 |  |  |  | 
CCAUAUAACUGAGGAUAUACUCACCACUAACAUGUAGAAGGCAGACAUGAGGAUCACCCAUGUGAUUUCUCAAUAUUAUACAUC [Prohibition 75 - Jieux - Exclusion NG 1] (Eterna round: R96, puzzle: Exclusion NG 1) |  | 500 |  |  |  | 
UUUAUAUAUGAAGGAUAUACUUAACAUGAGGAUCACCCAUGUGGUGUUGUGAGUGAGUGAGUUUAGUAGAAGGUCAAUUAUUUU [JMF's solution 27] (Eterna round: R96, puzzle: Exclusion NG 2) | 594 | 237 | 310 |  |  | 
AGAGUACUGCGAGGAUAUACAUGAGGAUCACCCAUGUGGUGGUGUGAGGCAAAGCCUCACACCAUGUAGAAGGCGCAGUACUCA [Mat - Exclusion NG 2 - Mod of JL - D20] (Eterna round: R96, puzzle: Exclusion NG 2) | 159 | 26.6 | 42.3 |  |  | 
UAAAAGCUAGGAUAUACUGGCACACAACUCAUAAAUUCAAGACAUGAGGAUCACCCAUGUAGAAGGAGCAAAUA [EX2 A.3] (Eterna round: R97, puzzle: Exclusion 2) | 63.5 |  | 23.6 |  |  | 
CUGAGGUAGCGGUCCUAUGACAUGAGGAUCACCCAUGUACCUUGCUUUGAGCUUUUUGCUCGUCUUAUGAUUCUCGG [JL Atriat mod 6] (puzzle: Sensor v3, turn-off variant 1) |  |  |  | 472 | 283 | 462
AAUUAAUUAAUUAAUUAAUACAUGAGGAUCACCCAUGUAAUUUAAGAUCCUUAUACAAGCUUUGAUCUCGUCUUAUA [Stov1/5-A1] (Eterna round: R97, puzzle: Sensor, turn-off variant 1) | 94.5 |  | 106 |  |  | 
CUGAAAGACGAAGGAUAUCCAGGCGCCGGCGUAGGAGAAGGUCGUCCGGGUGUCCUAGAACUUGAGGAUCACCCAAGUAGAAGA [Mutated MS2 EX1.14] (Eterna round: R96, puzzle: Exclusion NG 1) | 36.8 | 24.9 | 53.1 |  |  | 
GUAGAGUAAGGAUAUUGUGAAUAGGAUAGAAUGGUUAGAAACGAGAAGGUACAUGAGGAUCACCCAUGUAAUGU [Excluse me!!!! 22 - Jieux - Exclusion 4] (puzzle: Exclusion 4) |  |  |  | 24.1 | 22.1 | 24.4
AAAAAAAACAAGCUUAGGGACAUGAGGAUCACCCAUGUUCGUCUUAUAAAAAUAAAAAUAAAAAACAAAAAAUAAAA [Sensor V2: 53] (Eterna round: R96, puzzle: Sensor v2, turn-off variant) | 22.5 | 128 | 24.1 |  |  | 
AUAAAGUGAGGAUAUAUAAGACACGGUGAUACACCGUGAAAAUAGAAGGUACAUGAGGAUCACCCAUGUUGGGC [Mod of Anonveat 19 - Jieux - Exclusion 4] (Eterna round: R97, puzzle: Exclusion 4) | 50.2 |  | 53.7 |  |  | 
UUUACAAGCUAAAGAUCCCACAUGAGGAUCACCCAUGUUCCUGGCCGUGAGGCUAGGUAAACUUUUGCUCGUCUUAU [JL TOV1 3.67] (Eterna round: R97, puzzle: Sensor, turn-off variant 1) | 252 |  | 322 |  |  | 
CAUUACUACAAGCUUGGGAACAUGAGGAUCACCCAUGUUCGUCUUAUUGAUCUAGGUACGCUGACGUACCUAGAUCU [JL-sv1-2.24 Brourd mod] (puzzle: Sensor v3, turn-off variant 1) |  |  |  | 14.3 | 21.7 | 13.3
CGCUGGACAGGAUAUGUUCUUGGGCACUUGAGGAUCACCCAAGUCAUCAAGAAAACAGGCACAGAAGGGUUUAUGG [salish99_ex5_r4_020] (Eterna round: R97, puzzle: Exclusion 5) | 32.1 |  | 24.1 |  |  | 
UUGUUAUGUGUAGGAUAUGCAUAUUAUUAUUAUGCAGAAGGACAUGAGGAUCACCCAUGUGUAUUAUUAUUAUAUAUUAUAUAU [Title] (Eterna round: R96, puzzle: Exclusion NG 1) |  | 17.2 |  |  |  | 
ACAAGCAGAGAGUAAAUGGACAUGAGGAUCACCCAUGUGAGUCCGAAGAGAUAAGAUAUAUUGUCGGCUCGUCUUAU [AK-miRNA-r3-21] (Eterna round: R97, puzzle: Sensor, turn-off variant 1) | 105 |  | 105 |  |  | 
GGCAUCAUCUGGUCCUGAUACAUGAGGAUCACCCAUGUUCUACUGUAGGUCGUAAGCAGCUUACCCUCUUAGGCACA [JR_Sensorv2_tov_Sub1249] (Eterna round: R96, puzzle: Sensor v2, turn-off variant) | 380 | 227 | 308 |  |  | 
CAGUACUGAGGAUAUACAUGAGGAUCACCCAUGUGUCUAAGGUAGGAUACUACCAUUAGUAGAAGGCAGUACUG [Fiskers Ex 3 828 mod 19] (puzzle: Exclusion 3) |  |  |  |  | 13.2 | 
AAUAACAGGCCGAUCCUAAACAUGAGGAUCACCCAUGUGCUCGUCUUGUAAAGUACUAUCACGAAAGUGAUAGUACA [Sensor v3, turn-off variant 1 (MOD of Eli's v1-59 v.2 )] (puzzle: Sensor v3, turn-off variant 1) |  |  |  | 39.9 | 419 | 31.4
AUAAUUAAUCGAGGAUAUCAGCACGAUUAGUGCUGAGAAGGCGACAUGAGGAUCACCCAUGUGAUCAAUUAAUAUUAAUAUUAU [ENG1/11-C1] (Eterna round: R96, puzzle: Exclusion NG 1) | 1630 | 626 | 808 |  |  | 
